Results on seven molecules are retold here after patent US20210388107A1 (BYONDIS B V, published 2021).

Positions count from the first letter of the chain named.

Experiment [1] has as its target T1, human SIRPαBIT expressed on cells (human, UniProt P78324 31-504).
T1 construct: endogenous on U937 cells or transiently expressed on ExpiCHO-S cells; in the SHP-1 assay a ProLink-tagged form on Jurkat cells; also called huSIRPαBIT; U937 cells (huSIRPαBIT)
The experiment is described as follows: flow cytometry, U937 cells. The procedure: (§1) After an incubation time of 30 min at 4° C., the cells were washed three times with ice-cold FACS buffer and 50 μl/well secondary mAb (for human antibodies, AffiniPure F(ab′)₂ fragment Goat-anti-human IgG-APC, 1:6,000 dilution, Jackson Immuno Research was added and for mouse antibodies, AffiniPure Fab fragment Goat Anti-Mouse IgG (H+L)-Alexa Fluor 488, 1:1,000 dilution, Jackson Immuno Research was added). After 30 min at 4° C., cells were washed twice and resuspended in 150 μl FACS buffer. Fluorescence intensities were determined by flow cytometry (BD FACSVerse, Franklin Lakes, N.J.) and indicated as the median fluorescence intensity (MFI-Median) for U937 cells and the mean fluorescence intensity (MFI-Mean) for ExpiCHO-S cells. Curves were fitted by nonlinear regression using the sigmoidal dose-response equation with variable slope (four parameters) in GraphPad Prism (version 7.02 for Windows, GraphPad, San Diego, Calif.). EC₅₀ values were calculated as the concentration in μg/ml that gives a response half way between bottom and top of the curve, when using a 4-parameter logistic fit.

The target of experiment [2] is T2, human SIRPα1 expressed on cells (human, UniProt P78324 31-504).
T2 construct: whole, on cells; also called huSIRPα1; ExpiCHO-S (huSIRPα1)
Nature of the experiment: flow cytometry, ExpiCHO-S cells. The procedure:
as §1

Experiment [3] addresses T1, human SIRPαBIT expressed on cells. Nature of the experiment: flow cytometry, ExpiCHO-S cells. As to the method: as §1
In experiment [4] the target is T3, cynomolgus monkey SIRPα expressed on ExpiCHO-S cells (cynomolgus monkey, UniProt A0A2K5VYQ9 31-507).
T3 construct: whole, on cells; also called cySIRPα; ExpiCHO-S (cySIRPα)
T3 sequence: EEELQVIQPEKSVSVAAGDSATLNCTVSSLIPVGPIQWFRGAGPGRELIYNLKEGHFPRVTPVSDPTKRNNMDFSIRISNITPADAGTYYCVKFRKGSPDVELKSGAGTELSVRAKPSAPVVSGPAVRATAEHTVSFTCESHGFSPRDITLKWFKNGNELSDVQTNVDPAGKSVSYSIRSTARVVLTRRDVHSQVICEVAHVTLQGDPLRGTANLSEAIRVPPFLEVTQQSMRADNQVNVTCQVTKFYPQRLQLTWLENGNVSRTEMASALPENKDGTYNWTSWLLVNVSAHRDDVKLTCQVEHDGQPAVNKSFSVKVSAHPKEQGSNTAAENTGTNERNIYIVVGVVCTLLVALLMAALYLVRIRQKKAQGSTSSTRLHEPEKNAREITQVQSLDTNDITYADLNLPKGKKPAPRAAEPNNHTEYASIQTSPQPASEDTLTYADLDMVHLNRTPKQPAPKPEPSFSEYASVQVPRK
The experiment is described as follows: flow cytometry, ExpiCHO-S cells. As to the method: as §1

Experiment [5] concerns the target T4, human SIRPα1 extracellular domain 1-370, Avi-FXa-Fc tag (human, biotinylated).
T4 construct: also called huSIRPα1; v2
Nature of the experiment: SPR, captured biotinylated antigen. The procedure:
(§2) Surface Plasmon Resonance (SPR) assay: Affinity analysis was performed by single cycle kinetics analysis on a Surface Plasmon Resonance apparatus (BiaCore™ T200 system, GE Life Sciences) at 25° C. […] For each step an association time of 150 sec was used, followed by a dissociation time of 600 sec after the highest concentration only, all at a flow rate of 30 μl/min. Regeneration was performed with 6 M guanidine-HCl, 0.25 M NaOH solution (120 sec with flow rate of 30 μl/min). […] Sensorgrams were fitted with a 1:1 Langmuir model for all tested anti-SIRP antibodies. The kinetic parameters (association rate [kₐ], dissociation rate [kd] and binding constant, also referred to as equilibrium dissociation constant or binding affinity [KD]) were calculated using BiaCore™ T200 evaluation software (v3.1).

For experiment [6], the target named is T5, human SIRPαBIT, extracellular domain 1-370, Avi-FXa-Fc tag (human, biotinylated).
T5 construct: also called huSIRPαBIT; v1
Nature of the experiment: SPR, captured biotinylated antigen. The procedure:
as §2

For experiment [7], the target named is T6, cynomolgus monkey SIRPα, extracellular domain, Avi-FXa-Fc tag (cynomolgus monkey, biotinylated).
T6 construct: also called cySIRPα
Nature of the experiment: SPR, captured biotinylated antigen. The procedure: as §2

In experiment [8] the target is T7, human SIRPγ, extracellular domain, Avi-FXa-Fc tag (human, biotinylated).
T7 construct: also called huSIRPγ
Nature of the experiment: SPR, captured biotinylated antigen. As to the method:
as §2

The target in experiment [9] is T8, human SIRPβ1v2, extracellular domain, Avi-FXa-Fc tag (human, biotinylated).
T8 construct: also called huSIRPβ1v2
Nature of the experiment: SPR, captured biotinylated antigen. As to the method: as §2

Experiment [10] has as its target T9, human SIRPγ on human CD3+ T-cells (human, UniProt Q9P1W8 29-387).
T9 construct: whole, on cells
Nature of the experiment: flow cytometry on CD3+ T-cells in PBMC of two healthy individuals, % of positive cells. As to the method:
(§3) Flow Cytometry assay: Peripheral mononuclear cells (PBMC) were isolated from fresh blood of healthy individuals using Percoll gradient. […] Cells (200,000 cells/well in a 96-well plate) were subsequently incubated in the presence of tested antibodies or control conditions with secondary antibodies only (secondary goat anti-human IgG Alexa 633 F(ab′)₂ fragment, dilution 1:1000, Jackson Immuno Research, and secondary goat anti-mouse IgG Alexa 633 F(ab′)₂ fragment, dilution 1:250, Invitrogen) for 30 min on ice. After that, cells were washed with FACS buffer and resuspended in a mixture of anti-human CD3 FITC antibody (dilution 1:100, Invitrogen) with respective secondary antibody (either anti-human or anti-mouse) and incubated for 30 min in the dark on ice. Afterwards the cells were washed with FACS buffer and resuspended in 150 μl of FACS buffer and fluorescence intensities were determined by flow cytometry (LSRII HTS or LSRFortessa, BD Biosciences, CA, USA) and indicated as the median fluorescence intensity (MFI-Median) and percentage of positive cells.

For experiment [11], the target named is T9, human SIRPγ on human CD3+ T-cells. The experiment is described as follows: flow cytometry on CD3+ T-cells in PBMC of two healthy individuals, MFI. As to the method:
as §3

In experiment [12] the target is T10, human SIRPβ1v1, extracellular domain, Avi-FXa-Fc tag (human, biotinylated).
T10 construct: also called huSIRPβ1v1
Nature of the experiment: SPR, captured biotinylated antigen. The procedure: as §2

The target of experiment [13] is T6, cynomolgus monkey SIRPα, extracellular …. Nature of the experiment: SPR, captured biotinylated antigen; sub-optimal fit. The procedure:
as §2

T4 sequence (chain, as listed by the source limits assumed): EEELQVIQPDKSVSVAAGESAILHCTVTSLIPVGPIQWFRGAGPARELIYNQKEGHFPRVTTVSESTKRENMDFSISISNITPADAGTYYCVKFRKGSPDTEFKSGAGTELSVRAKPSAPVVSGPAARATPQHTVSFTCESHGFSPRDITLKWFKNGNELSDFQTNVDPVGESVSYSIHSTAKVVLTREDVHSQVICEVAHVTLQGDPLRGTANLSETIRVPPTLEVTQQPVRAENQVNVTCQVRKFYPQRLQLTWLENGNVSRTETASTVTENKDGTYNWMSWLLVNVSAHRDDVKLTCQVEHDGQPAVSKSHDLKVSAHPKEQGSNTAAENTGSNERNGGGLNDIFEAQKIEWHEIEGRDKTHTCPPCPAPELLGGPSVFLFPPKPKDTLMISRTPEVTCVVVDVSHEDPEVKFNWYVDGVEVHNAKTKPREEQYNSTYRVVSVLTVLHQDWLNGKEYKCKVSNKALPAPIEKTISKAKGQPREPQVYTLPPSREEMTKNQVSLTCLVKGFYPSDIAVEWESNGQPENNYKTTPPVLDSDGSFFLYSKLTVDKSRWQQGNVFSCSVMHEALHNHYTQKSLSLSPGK
T9 sequence (Q9P1W8 29-387): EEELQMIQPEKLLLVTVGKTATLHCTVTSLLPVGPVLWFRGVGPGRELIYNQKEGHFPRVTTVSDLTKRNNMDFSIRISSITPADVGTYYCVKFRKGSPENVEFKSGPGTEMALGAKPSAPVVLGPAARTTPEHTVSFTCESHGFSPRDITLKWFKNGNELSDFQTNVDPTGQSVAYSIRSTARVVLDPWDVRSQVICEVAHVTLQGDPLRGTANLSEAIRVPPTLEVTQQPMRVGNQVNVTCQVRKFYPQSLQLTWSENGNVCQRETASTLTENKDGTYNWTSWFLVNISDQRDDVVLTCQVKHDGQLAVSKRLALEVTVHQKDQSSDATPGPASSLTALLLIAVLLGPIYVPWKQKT
T5 sequence (chain, as listed by the source limits assumed): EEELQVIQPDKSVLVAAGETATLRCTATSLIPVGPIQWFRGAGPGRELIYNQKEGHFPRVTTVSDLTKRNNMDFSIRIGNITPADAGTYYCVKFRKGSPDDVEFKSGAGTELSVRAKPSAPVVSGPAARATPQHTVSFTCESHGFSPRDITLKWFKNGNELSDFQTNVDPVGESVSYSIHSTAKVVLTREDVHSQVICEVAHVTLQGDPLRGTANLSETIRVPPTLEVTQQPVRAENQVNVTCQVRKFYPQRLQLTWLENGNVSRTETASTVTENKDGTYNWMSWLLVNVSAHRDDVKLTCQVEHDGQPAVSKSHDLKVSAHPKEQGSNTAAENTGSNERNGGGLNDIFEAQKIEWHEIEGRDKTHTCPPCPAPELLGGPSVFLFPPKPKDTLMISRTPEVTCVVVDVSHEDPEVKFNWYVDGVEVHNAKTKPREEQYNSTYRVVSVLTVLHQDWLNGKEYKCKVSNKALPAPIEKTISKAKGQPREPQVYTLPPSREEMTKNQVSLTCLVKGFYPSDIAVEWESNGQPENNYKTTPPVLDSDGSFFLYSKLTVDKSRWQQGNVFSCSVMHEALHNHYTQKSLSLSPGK
T7 sequence (chain, as listed by the source limits assumed): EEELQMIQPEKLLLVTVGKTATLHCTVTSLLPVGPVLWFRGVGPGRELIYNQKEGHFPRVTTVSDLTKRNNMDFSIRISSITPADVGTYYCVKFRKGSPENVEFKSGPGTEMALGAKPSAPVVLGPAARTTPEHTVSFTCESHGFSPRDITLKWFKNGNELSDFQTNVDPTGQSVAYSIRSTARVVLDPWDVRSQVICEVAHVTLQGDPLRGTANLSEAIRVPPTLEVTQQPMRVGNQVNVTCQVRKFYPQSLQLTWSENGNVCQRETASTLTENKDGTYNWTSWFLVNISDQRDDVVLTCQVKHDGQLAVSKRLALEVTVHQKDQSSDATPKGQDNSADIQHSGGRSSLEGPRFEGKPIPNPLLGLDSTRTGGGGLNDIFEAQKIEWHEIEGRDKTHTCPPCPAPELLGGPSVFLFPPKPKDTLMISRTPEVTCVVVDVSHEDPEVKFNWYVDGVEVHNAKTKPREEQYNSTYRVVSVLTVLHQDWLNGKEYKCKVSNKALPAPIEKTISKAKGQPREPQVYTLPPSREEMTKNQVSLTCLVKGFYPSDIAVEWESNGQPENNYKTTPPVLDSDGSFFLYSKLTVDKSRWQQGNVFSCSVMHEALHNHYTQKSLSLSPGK
T10 sequence (chain, as listed by the source limits assumed): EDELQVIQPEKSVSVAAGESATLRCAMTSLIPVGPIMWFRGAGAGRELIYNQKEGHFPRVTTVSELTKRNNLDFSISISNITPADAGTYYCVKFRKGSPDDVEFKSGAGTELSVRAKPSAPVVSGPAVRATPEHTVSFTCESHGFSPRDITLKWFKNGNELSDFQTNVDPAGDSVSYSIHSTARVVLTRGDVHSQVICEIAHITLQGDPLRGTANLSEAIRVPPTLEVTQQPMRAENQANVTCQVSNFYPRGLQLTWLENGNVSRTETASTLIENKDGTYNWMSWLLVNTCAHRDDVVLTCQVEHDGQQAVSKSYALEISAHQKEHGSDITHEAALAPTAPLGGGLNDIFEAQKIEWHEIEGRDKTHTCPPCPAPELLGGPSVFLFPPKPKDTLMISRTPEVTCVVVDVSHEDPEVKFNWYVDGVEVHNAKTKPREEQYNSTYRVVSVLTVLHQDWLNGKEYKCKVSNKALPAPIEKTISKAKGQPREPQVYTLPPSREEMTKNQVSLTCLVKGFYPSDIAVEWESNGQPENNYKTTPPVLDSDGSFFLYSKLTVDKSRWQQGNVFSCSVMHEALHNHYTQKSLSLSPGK
T8 sequence (chain, as listed by the source limits assumed): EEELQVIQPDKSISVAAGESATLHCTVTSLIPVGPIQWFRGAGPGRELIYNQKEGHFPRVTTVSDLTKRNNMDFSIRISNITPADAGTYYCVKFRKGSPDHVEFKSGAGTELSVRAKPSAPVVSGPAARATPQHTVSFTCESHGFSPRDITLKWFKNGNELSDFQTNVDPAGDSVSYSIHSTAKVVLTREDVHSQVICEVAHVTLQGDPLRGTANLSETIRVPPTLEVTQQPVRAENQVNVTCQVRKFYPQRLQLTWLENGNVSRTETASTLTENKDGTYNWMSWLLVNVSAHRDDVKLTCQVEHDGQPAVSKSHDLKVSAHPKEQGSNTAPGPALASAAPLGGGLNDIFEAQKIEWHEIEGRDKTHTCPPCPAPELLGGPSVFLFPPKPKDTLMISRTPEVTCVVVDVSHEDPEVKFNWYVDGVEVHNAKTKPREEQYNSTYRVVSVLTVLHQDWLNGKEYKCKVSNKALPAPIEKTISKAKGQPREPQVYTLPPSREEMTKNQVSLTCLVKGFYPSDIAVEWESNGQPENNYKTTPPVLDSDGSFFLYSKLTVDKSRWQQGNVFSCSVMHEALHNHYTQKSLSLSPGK

B1: humanized anti-SIRPα antibody 4 (antibody, human IgG1, kappa, L234A L235A)
heavy: not shown
light: DIQMTQSPSSLSASVGDRVTITCRASQSINSYLAWYQQKPGKAPKLLIYSASFLYSGVPSRFSGSGSGTDFTLTISSLQPEDFATYYCQSWHYISRSYTFGQGTKVEIKRTVAAPSVFIFPPSDEQLKSGTASVVCLLNNFYPREAKVQWKVDNALQSGNSQESVTEQDSKDSTYSLSSTLTLSKADYEKHKVYACEVTHQGLSSPVTKSFNRGEC
notes: human IgG1 LALA, kappa; also called mAb 4
As to B1, the EC50 in experiment [1] is 0.1 µg/mL; in [2] it was 0.38 µg/mL; in experiment [3], 0.36 µg/mL; in experiment [4] it was 0.14 µg/mL. Moreover, the Kd is 1.38 nM in experiment [5], below 0.01 nM in experiment [6], 1.94 nM in experiment [7] and 2.34 nM in experiment [9]. In addition, the values for the binding result in [8] and in experiment [10] were “no binding (tested: below 10 RU cut-off; up to 1600 ng/ml)” and “no binding”, respectively.

B2: humanized anti-SIRPα antibody 13 (antibody, human IgG1, kappa, L234A L235A)
heavy: not shown
light: B1 light
notes: human IgG1 LALA, kappa; also called mAb 13
Turning to B2, the EC50 in experiment [1] stood at 0.08 µg/mL; in experiment [2], 0.27 µg/mL; in experiment [3] it was 0.28 µg/mL; in experiment [4], 0.11 µg/mL. In addition, the Kd is 1.41 nM in experiment [5], below 0.01 nM in experiment [6], 2.05 nM in [7] and 2.78 nM in experiment [9]. The binding result is listed as “no binding (tested: below 10 RU cut-off; up to 1600 ng/ml)” in experiment [8] and “no binding” in experiment [11].

B3: humanized anti-SIRPα antibody 12 (antibody, human IgG1, kappa, L234A L235A)
heavy: not shown
light: B1 light
notes: human IgG1 LALA, kappa; also called mAb 12
Consider B3, for which the EC50 in experiment [1] worked out at 0.08 µg/mL; in [2], 0.27 µg/mL; in experiment [3], 0.26 µg/mL; in experiment [4] it was 0.23 µg/mL. Besides, the dissociation constant Kd was 1.38 nM in experiment [5], below 0.01 nM in experiment [6], 1.53 nM in experiment [7] and 1.94 nM in experiment [9]. The results for the binding result in experiment [8] and in experiment [11] were “no binding (tested: below 10 RU cut-off; up to 1600 ng/ml)” and “no binding”, respectively.

B4: humanized anti-SIRPα antibody 5 (antibody, human IgG1, kappa, L234A L235A, V domains shown)
VH: RQLVESGGGLVQPGGSLRLSCAASGFSLSSHGISWVRQAPGKGLEYIGTIGTGVITYYASWAKGRFTGSKTSSTAYLQMTSLRAEDTAVYYCARGSAWNDPFDYWGQGTLVTVSS
VL: DIEMTQSPSSVSASVGDRVTLTCQASQSVYGNNDLAWYQQKPGQAPKLLIYLASTLATGVPSRFSGSGSGTDFTLTISSLQPEDFATYYCLGGGDDEADNVFGGGTKVEIKR
notes: human IgG1 LALA, kappa; also called mAb 5
On to B4, for which the concentration giving a half-maximal response (EC50) amounted to 1.6 µg/mL in experiment [1], 0.22 µg/mL in experiment [2], 0.12 µg/mL in experiment [3] and 1.91 µg/mL in experiment [4]. Further, the Kd in [5] was below 0.01 nM; in experiment [6] it was 0.142 nM; in [9], 2.97 nM; in [12] it was 0.593 nM; in experiment [13] it was 76.2 nM. Further, the binding result is “no binding (tested: below 10 RU cut-off; up to 1600 ng/ml)” in experiment [8] and “no binding” in [10].

B5: humanized anti-SIRPα antibody 8 (antibody, human IgG1, kappa, L234A L235A, V domains shown)
VH: B4 VH
VL: B4 VL with E3V, V11L, L21I, V101T, G104Q
notes: human IgG1 LALA, kappa; also called mAb 8
B5: the 50% effective concentration (EC50) came out at 1.04 µg/mL in [1], 0.17 µg/mL in experiment [2], 0.14 µg/mL in experiment [3] and 2.44 µg/mL in [4]. Further, the dissociation constant (Kd) in [5] was below 0.01 nM; in experiment [6] it was 0.152 nM; in [9], 1.84 nM; in experiment [12], 0.661 nM; in experiment [13], 1.88 nM. The results for the binding result in [8] and in [10] were “no binding (tested: below 10 RU cut-off; up to 1600 ng/ml)” and “no binding”, respectively.

B6: humanized anti-SIRPα antibody 9 (antibody, human IgG1, kappa, L234A L235A, V domains shown)
VH: B4 VH with Y46W, I47V, A84S
VL: B4 VL with E3V, V11L, L21I, V101T, G104Q
notes: human IgG1 LALA, kappa; also called mAb 9
With B6, the 50% effective concentration (EC50) in experiment [1] stood at 2.78 µg/mL; in experiment [2], 0.19 µg/mL; in experiment [3] it was 0.11 µg/mL. The Kd turned out to be 0.0191 nM in experiment [5], 0.365 nM in experiment [6] and 1.44 nM in experiment [12]. Besides, the results for the binding result in [8] and in [11] were “no binding (tested: below 10 RU cut-off; up to 1600 ng/ml)” and “no binding”, respectively.

B7: humanized anti-SIRPα antibody 11 (antibody, human IgG1, kappa, L234A L235A, V domains shown)
VH: B4 VH with Y46W, I47V
VL: B4 VL
notes: human IgG1 LALA, kappa; also called mAb 11
B7: the EC50 worked out at 3.73 µg/mL in [1], 0.11 µg/mL in experiment [2] and 0.08 µg/mL in experiment [3]. For the same molecule, the dissociation constant (Kd) came to 0.0349 nM in [5], 0.212 nM in [6] and 2.01 nM in [12]. Further, the binding result is “no binding (tested: below 10 RU cut-off; up to 1600 ng/ml)” in [8] and “no binding” in experiment [11].
